# Data taken from patent publication US20060235215A1 (published 2006).
# T1: Hypothetical Protein 006819-2510, Similar to Hemerocallis Senescence-Related Protein 5, bait fragment aa 1-150 (Oryza sativa)
# T1 construct: bait; also called Os006819-2510; PN20462
# T1 chain: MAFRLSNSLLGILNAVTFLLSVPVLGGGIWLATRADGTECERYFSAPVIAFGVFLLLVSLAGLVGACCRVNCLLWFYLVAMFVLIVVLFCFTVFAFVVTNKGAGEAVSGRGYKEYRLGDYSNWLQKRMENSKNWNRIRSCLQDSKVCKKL
# T2: O. sativa Serine/Threonine Protein Phosphatase PP2A-2, Catalytic Subunit, bait fragment aa 150-308 (Oryza sativa, UniProt A2XN40 150-307)
# T2 construct: bait; also called OsPP2A-2; PN20254
# T2 sequence: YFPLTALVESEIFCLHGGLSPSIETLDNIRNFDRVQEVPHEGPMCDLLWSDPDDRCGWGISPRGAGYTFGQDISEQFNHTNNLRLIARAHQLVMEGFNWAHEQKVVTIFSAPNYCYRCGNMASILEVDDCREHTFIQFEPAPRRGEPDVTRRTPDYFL
# T3: O. sativa Chitinase, Class III, bait fragment aa 10-200 (Oryza sativa)
# T3 construct: bait; also called OsCHIB1; PN19651
# T3 chain: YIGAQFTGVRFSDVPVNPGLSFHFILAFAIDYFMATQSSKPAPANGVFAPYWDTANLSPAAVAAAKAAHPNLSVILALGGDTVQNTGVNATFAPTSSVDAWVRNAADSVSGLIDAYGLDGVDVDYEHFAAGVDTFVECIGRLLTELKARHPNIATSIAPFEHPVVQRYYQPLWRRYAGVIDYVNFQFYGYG
# T4: OsSGT1, bait fragment aa 200-368 (Oryza sativa, UniProt Q0JL44 200-367)
# T4 construct: bait; also called PN20285
# T4 sequence: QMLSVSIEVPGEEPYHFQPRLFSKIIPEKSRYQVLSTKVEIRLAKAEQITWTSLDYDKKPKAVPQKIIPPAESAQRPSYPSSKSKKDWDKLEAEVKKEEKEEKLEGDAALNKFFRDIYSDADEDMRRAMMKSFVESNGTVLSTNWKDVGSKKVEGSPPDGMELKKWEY
# B1: Novel Protein PN29950, prey clone aa 138-343 (other)
# chain: RRQGGEGQVDFGSMISSVLNNPAFGNLLSNVAEQTGMGSAGDLRNMVEECAQSPAIMDTMSNLVQNVDGSGRGQGGIDLSRMMQQMMPVVSQVLGGAGARPAGTNSGQSRLQPRRSDMRVDDASDYGNSQIDLHQAREHIEQHDSPRDIFGAVLETAAQAYGEDESIEDMLEELVSDPELTDDYLKLLLQQVRQRIQSASQSGNQS
# notes: prey; AD fusion; output trait library; two clones; also called OsPN29950
# B2: Novel Protein PN29950, prey clone aa 50-343 (other)
# chain: ASSRSEPVGLGGGLQPKRRSRTAKPPGSSSDTGEVVNSSRISNSQNAVSMGQQVLQALASQNTNVNRSHVTDSPLPSTTSQFSGGMPPRRQGGEGQVDFGSMISSVLNNPAFGNLLSNVAEQTGMGSAGDLRNMVEECAQSPAIMDTMSNLVQNVDGSGRGQGGIDLSRMMQQMMPVVSQVLGGAGARPAGTNSGQSRLQPRRSDMRVDDASDYGNSQIDLHQAREHIEQHDSPRDIFGAVLETAAQAYGEDESIEDMLEELVSDPELTDDYLKLLLQQVRQRIQSASQSGNQS
# notes: prey; AD fusion; output trait library; also called OsPN29950
# B3: Novel Protein PN29950, prey clone aa 7-103 (other)
# chain: TANLVGQITTTCTDDISVNRSAENSSQKNIPLDGVSAQSIKPSASSRSEPVGLGGGLQPKRRSRTAKPPGSSSDTGEVVNSSRISNSQNAVSMGQQV
# notes: as for B2
# B4: Oryza sativa Putative Myosin, prey clone aa 685-888 (other)
# chain: IYEQGLVLQQLKCCGVLEVVRISRSGYPTRMTHQKFARRYGFLLLEDVASQDPLSVSVAILHQFNILPEMYQVGYTKLFFRTGQIGKLEDTRNRTLHGILRVQSCFRGHQARRHARERIRGVLALQSFIRGENARKMYSSLARKHRAAIILQRNLKCWLARRYFVNIRKASVVIQSGIRGCLVRRCAGNVDLLNVLREFESKKE
# notes: prey; AD fusion; output trait library; also called OsPN23878
# B5: Novel Protein PN29037, prey clone aa 73-165 (other)
# chain: VVFDKDGVLEQIGEGKGYVDMSTVDAATSCKISEAIKQKGGAFVEAPVSGSKKPAEDGQLVILAAGDKVLYDDMVPAFDVLGKKSFFLGEIGN
# notes: prey; AD fusion; input trait library; also called OsPN29037
# B6: O. sativa Glutelin CAA33838, prey clone aa 5-155 (other)
# chain: VFSRFSIYFCVLLLCHGSMAQLFNPSTNPWHSPRQGSFRECRFDRLQAFEPLRKVRSEAGVTEYFDEKNELFQCTGTFVIRRVIQPQGLLVPRYTNIPGVVYIIQGRGSMGLTFPGCPATYQQQFQQFSSQGQSQSQKFRDEHQKIHQFRQ
# notes: prey; AD fusion; output trait library; also called OsCAA33838; PN24775
# B7: Hypothetical Protein 011994-D16, Similar to Z. mays DnaJ protein, prey clone aa 99-368 (other)
# chain: FGPSFGGGGSSRGRRQRRGEDVIHPLKVSLEDLYNGTSKKLSLSRNVLCAKCKGKGSKSGASMRCPGCQGSGMKITIRQLGPSMIQQMQQPCNECKGTGESINEKDRCPGCKGEKVIQEKKVLEVHVEKGMQHNQKITFPGEADEAPDTVTGDIVFVLQQKDHSKFKRKGDDLFYEHTLSLTEALCGFQFVLTHLDNRQLLIKSNPGEVVKPDQFKAINDEGMPMYQRPFMKGKLYIHFTVEFPDSLAPEQCKALEAVLPPKPASQLTEM
# notes: prey; AD fusion; output trait library; also called Os011994-D16; PN20618
# B8: Novel Protein PN24162, Porin-like, Voltage-Dependent Anion Channel Protein, prey clone aa 28-164 (other)
# chain: QKLTVSTVSSSGVGLTSTAVKKGGLYTLDVSSVYKYKSTLVDVKVDTESNISTTLTVFDVLPSTKLVTSVKLPDYNSGKVEMQYFHENASFATAVGMKPSPVVEFSGTAGAQGLAFGAEAGFDTATGKFTKYSAAIG
# notes: prey; AD fusion; output trait library; also called OsPN24162
# B9: Hypothetical Protein ORF020300-2233.2, Putative PP2A Regulatory Subunit, Similar to OsCAA90866, prey clone aa 118-388 (other)
# chain: SQDHLKEFISICEALELISEDELELSRQKQPDTMANRRAQKAARFKRQKAAETKLLEIKERKERRRRSLRAAALSAPIEAGEEDAFEDDGEEEREAWLATISLALCKAFDLLDMLKKEEEMLLAVKERQAKDGNAFAREMLDERTKKAEAWHHNAANRAPYSKPADPITCATFAQDVIEGRASVSQAHEHKHQPLIFGPASLVGGGLTSERERMAAQVFQPSYRLPTMSIEEAGLREMKMMEKWQERTAKMIQESNSAWHKDGSRSAQEDE
# notes: prey; AD fusion; input trait library; also called OsORF020300-2233.2
# B10: Novel Protein 23268, Similar to Phosphoribosylanthranilate Transferase, Chloroplast Precursor, Fragment, prey clone aa 12-200 (other)
# chain: SEEEAEATLRLLLEEENEARIAAFLVLLRAKGETYEEIVGLAKAMIGCCVRVDGLDDAVDIVGTGGDGADTVNISTGSTILAAAAGAKVAKQGSRASSSACGSADGIKRCVNEVGVGFMMSANYHPAMKIVKPVRKKLKIKTVFNILGPLLNPARVPYAVIGVYHENIVTKMAKAAQKFGMKRALVVHS
# notes: prey; AD fusion; input trait library; two clones; also called OsPN23268; Os23268
# B11: Novel Protein PN26645, Putative Protein Disulfide Isomerase-Related Protein Precursor, prey clone aa 24-164 (other)
# chain: PLPEACPVPTAAEEILGPGGTCTTLDRRGDPVGVIEGDEVTLAKAITLLHMNKDDYIAVLFYASWCPFSQECKPNFEILASLFPSIRHFAFEESSIRPSIISRYGIHGFPTLFLLNSTMRVRYHGPRTVKSLAAFYRDVSG
# notes: prey; AD fusion; input trait library; also called OsPN26645
# B12: Novel Protein PN29041, Fragment, Similar to A. thaliana Putative ATPase, prey clone aa 5-108 (other)
# chain: VQIRRALRALVDDHTDGLMDFEDTEVRSSEETDALEEARLAIEQVVIPKGESVQLLPRPPSIIASQVDLVESFKLKWESIGQEPNACLRILPQFVGVEEGGKSV
# notes: prey; AD fusion; input trait library; two clones; also called OsPN29041
# B13: Novel Protein PN22020, Fragment, Similar to A. thaliana Putative Protein, prey clone aa 76-170 (other)
# chain: ANATDGVKPLVGSARLPLRDVLADTGIGARASRSLRLKRPSGRPHGRLEVRVAVREPKRYYDPSPAYPAPYHQQTNRDPYAYGNTTTGGYGYAYG
# notes: prey; AD fusion; input trait library; three clones; also called OsPN22020
# B14: Novel Protein PN22020, Fragment, Similar to A. thaliana Putative Protein, prey clone aa 128-170 (other)
# chain: AVREPKRYYDPSPAYPAPYHQQTNRDPYAYGNTTTGGYGYAYG
# notes: prey; AD fusion; input trait library; also called OsPN22020
# B15: Novel Protein PN22823, Similar to ABC Transporter Proteins, prey clone aa 25-106 (other)
# chain: SSSGKKVPLFSLFRYADRLDVLLMVVGTVGALGNGISQPLMTVLFGNVINSFGANTSGSVLRSVTKVKVSCWTMAGERQSAR
# notes: prey; AD fusion; input trait library; also called OsPN22823
# B16: HSP70-like PN23949, prey clone aa 244-418 (other)
# chain: HKLKSSLILMPMVSLLLLLLIRVLGRNRISPSPALSTLPKDEVERMVEEADKFAQEDKEKRDAIDTKNQADSVVYQTEKQLKELGDKVPAPVKEKVDAKLNELKEAIAGGSTQSMKDAMAALNEEVMQIGQAMYNQQPNAGAAGPTPGADAGPTSSGGKGPNDGDVIDADFTDSN
# notes: prey; AD fusion; output trait library
# B17: Elicitor responsive protein, prey clone aa 54-144 (other)
# chain: ETFMFSVTHNATELIIKLMDSDSGTDDDFVGEATISLEAIYTEGSIPPTVYNVVKEEEYRGEIKVGLTFTPEDDRDRGLSEEDIGGWKQSS
# notes: prey; AD fusion; input trait library; also called OsERP; PN20696
# B18: OsSGT1, prey clone aa 9-227 (other)
# chain: LESKAKAAFVDDDFELAAELYTQAIEASPATAELYADRAQAHIKLGNYTEAVADANKAIELDPSMHKAYLRKGAACIRLEEYQTAKAALELGYSFASGDSRFTRLMKECDERIAEELTEVPVKKAEDGAAAPSVASFVEEKDDAANMDNTPPMVEVKPKYRHDFYNSATEVVLTIFAKGVPAENVVVDFGEQMLSVSIEVPGEEPYHFQPRLFSKIIPE
# notes: prey; AD fusion; output trait library; also called PN20285
# Molecular target: T5, O. sativa Calreticulin Precursor, bait fragment aa 1-150 (Oryza sativa, UniProt Q9SLY8 1-150)
# T5 construct: bait; also called OsCRTC; PN20544
# T5 sequence (Q9SLY8 1-150): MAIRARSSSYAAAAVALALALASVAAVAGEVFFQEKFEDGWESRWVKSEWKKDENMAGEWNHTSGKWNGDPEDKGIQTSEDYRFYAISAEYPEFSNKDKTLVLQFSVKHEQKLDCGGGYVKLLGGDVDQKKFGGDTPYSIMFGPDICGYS
# Assay: yeast two-hybrid
row,Binder,binding result
1,B1,binds
2,B2,binds
3,B3,binds

# Molecular target: T1, Hypothetical Protein 006819-2510, …
# Assay: yeast two-hybrid
row,Binder,binding result
1,B4,binds
2,B5,binds

# Molecular target: T2, O. sativa Serine/Threonine Protein …
# Assay: yeast two-hybrid
row,Binder,binding result
1,B6,binds
2,B7,binds
3,B8,binds

# Molecular target: T6, O. sativa Serine/Threonine Protein Phosphatase PP2A-2, Catalytic Subunit, bait fragment aa 1-308 (Oryza sativa, UniProt A2XN40 1-307)
# T6 construct: bait; also called OsPP2A-2; PN20254
# T6 sequence (A2XN40 whole entry, the tested form may be a part): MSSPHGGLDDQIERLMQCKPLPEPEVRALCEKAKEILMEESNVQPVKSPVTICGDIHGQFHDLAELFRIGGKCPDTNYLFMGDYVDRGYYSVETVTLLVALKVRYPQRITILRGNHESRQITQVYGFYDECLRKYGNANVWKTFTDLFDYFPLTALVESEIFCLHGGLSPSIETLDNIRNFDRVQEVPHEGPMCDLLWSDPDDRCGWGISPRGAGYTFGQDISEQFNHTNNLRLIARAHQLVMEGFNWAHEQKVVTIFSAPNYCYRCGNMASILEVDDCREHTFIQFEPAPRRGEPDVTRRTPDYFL
# Assay: yeast two-hybrid
row,Binder,binding result
1,B9,binds
2,B10,binds
3,B11,binds

# Molecular target: T3, O. sativa Chitinase, Class III, bait …
# Assay: yeast two-hybrid
# Method: (§1) Yeast carrying the target gene construct was combined with yeast carrying the activation domain library. The two yeast strains mated to form diploid yeast and were plated on media that selected for expression of one or more Ga14p-responsive reporter genes. Thus, both hybrid proteins (i.e., the target “bait” protein and the activation domain “prey” protein) were expressed in a yeast reporter strain where an interaction between the test proteins results in transcription of the reporter genes […]. Colonies that arose after incubation were selected for further characterization. The activation domain plasmid was isolated from each colony obtained in the two-hybrid search. The sequence of the insert in this construct was obtained by sequence analysis (e.g., Sanger's dideoxy nucleotide chain termination method; see Ausubel et al., 1988, including updates up to 2002). Thus, the identity of positives obtained from these searches was determined by sequence analysis against proprietary and public (e.g., GENBANK®) nucleic acid and protein databases.
# This example provides newly characterized rice proteins interacting with a rice chitinase, class III (OsCHIB1), and with rice cellulose synthase catalytic subunit, RSW1-like (OsCS). An automated, high-throughput yeast two-hybrid assay technology (provided by Myriad Genetics Inc., Salt Lake City, Utah) was used to search for protein interactions with the chitinase and cellulose synthase bait proteins.
row,Binder,binding result
1,B12,binds
2,B13,binds
3,B14,binds
4,B15,binds

# Molecular target: T4, OsSGT1, bait fragment aa 200-368
# Assay: yeast two-hybrid
# Method: as §1
# The rice SGT1 protein shares 74 and 75% amino acid sequence similarity with two Arabidopsis thaliana SGT1 homologs and 45% amino acid sequence similarity with Saccharomyces cerevisiae SGT1. In yeast, SGT1 is required for cell-cycle progression at the G1/S-phase and G2/M-phase transitions. In A. thaliana, SGT1b interacts with Rar1 and mediates disease resistance. Thus, in plants, SGT1 likely controls processes that are fundamental to disease resistance and development. The rice OsSGT1 protein was chosen as a bait for these interaction studies based on its potential relevance to disease resistance and development.
row,Binder,binding result
1,B16,binds
2,B17,binds
3,B18,binds
